In patent US20150203577A1 (Chugai, published 2015):
Changes are numbered by the printed parent chain.

B1: H237-MB784/MRAL-k0 (antibody, mouse IgG1, kappa)
heavy: QVQLQESGPGLVKPSETLSLTCAVSGHSISHDHAWSWVRQPPGEGLEWIGFISYSGITNYNPSLQGRVTISRDNSKNTLYLQMNSLRAEDTAVYYCARSLARTTAMDYWGEGTLVTVSSAKTTPPSVYPLAPGSAAQTNSMVTLGCLVKGYFPEPVTVTWNSGSLSSGVHTFPAVLQSDLYTLSSSVTVPSSTWPSETVTCNVAHPASSTKVDKKIVPRDCGCKPCICEPNEVELVFIFPPKPKDVLTITLTPKVTCVVVDISKDDPEVQFSWFVDDVEVHTAQTQPREELFNSTFRSVSELPIMHQDWLNGKEFKCRVNSAAFPAPIERTISKTKGRPKAPQVYTIPPPKEQMAKDKVSLTCMITDFFPEDITVEWQWNGQPAENYKNTQPIMDTDGSYFVYSKLNVQKSNWEAGNTFTCSVLHEGLHNHHTEKSLSHSPGK
light: not shown
notes: copies: 2 + 2
B2: H237-MB820/MRAL-k0 (antibody, mouse IgG1, kappa)
heavy: B1 heavy with L291Q, N320M, E329Y, R330K
light: not shown
notes: copies: 2 + 2
B3: H237-MB788/MRAL-k0 (antibody, mouse IgG1, kappa)
heavy: B1 heavy with N320D
light: not shown
notes: copies: 2 + 2
B4: H237-MB818/MRAL-k0 (antibody, mouse IgG1, kappa)
heavy: B1 heavy with L291Q, N320M, P327F, R330K
light: not shown
notes: copies: 2 + 2
B5: H237-MB809/MRAL-k0 (antibody, mouse IgG1, kappa)
heavy: B1 heavy with P327F, R330K
light: not shown
notes: copies: 2 + 2
B6: H237-MB787/MRAL-k0 (antibody, mouse IgG1, kappa)
heavy: B1 heavy with N320D, A322D, R330K
light: not shown
notes: copies: 2 + 2
B7: H237-MB816/MRAL-k0 (antibody, mouse IgG1, kappa)
heavy: B1 heavy with L291Q, N320M, A322D, R330K
light: not shown
notes: copies: 2 + 2
B8: H237-MB812/MRAL-k0 (antibody, mouse IgG1, kappa)
heavy: B1 heavy with L291Q, N320D, A323G, R330K
light: not shown
notes: copies: 2 + 2
B9: H237-MB822/MRAL-k0 (antibody, mouse IgG1, kappa)
heavy: B1 heavy with L291Q, A322D, A323G, R330K
light: not shown
notes: copies: 2 + 2
B10: H237-MB789/MRAL-k0 (antibody, mouse IgG1, kappa)
heavy: B1 heavy with A322D
light: not shown
notes: copies: 2 + 2
B11: H237-MB808/MRAL-k0 (antibody, mouse IgG1, kappa)
heavy: B1 heavy with A323G, R330K
light: not shown
notes: copies: 2 + 2
B12: H237-MB786/MRAL-k0 (antibody, mouse IgG1, kappa)
heavy: B1 heavy with L291Q, A322D
light: not shown
notes: copies: 2 + 2
B13: H237-MB791/MRAL-k0 (antibody, mouse IgG1, kappa)
heavy: B1 heavy with N320D, A322D
light: not shown
notes: copies: 2 + 2
B14: H237-MB785/MRAL-k0 (antibody, mouse IgG1, kappa)
heavy: B1 heavy with L291Q, N320D, A322D, R330K
light: not shown
notes: copies: 2 + 2
B15: H237-MB810/MRAL-k0 (antibody, mouse IgG1, kappa)
heavy: B1 heavy with P327Y, R330K
light: not shown
notes: copies: 2 + 2
B16: H237-MB819/MRAL-k0 (antibody, mouse IgG1, kappa)
heavy: B1 heavy with L291Q, N320M, P327Y, R330K
light: not shown
notes: copies: 2 + 2
B17: H237-MB823/MRAL-k0 (antibody, mouse IgG1, kappa)
heavy: B1 heavy with L291Q, A322D, P327F, R330K
light: not shown
notes: copies: 2 + 2
B18: H237-MB815/MRAL-k0 (antibody, mouse IgG1, kappa)
heavy: B1 heavy with L291Q, N320D, E329Y, R330K
light: not shown
notes: copies: 2 + 2
B19: H237-MB811/MRAL-k0 (antibody, mouse IgG1, kappa)
heavy: B1 heavy with E329Y, R330K
light: not shown
notes: copies: 2 + 2
B20: H237-MB807/MRAL-k0 (antibody, mouse IgG1, kappa)
heavy: B1 heavy with N320M, R330K
light: not shown
notes: copies: 2 + 2
B21: H237-MB813/MRAL-k0 (antibody, mouse IgG1, kappa)
heavy: B1 heavy with L291Q, N320D, P327F, R330K
light: not shown
notes: copies: 2 + 2
B22: H237-MB824/MRAL-k0 (antibody, mouse IgG1, kappa)
heavy: B1 heavy with L291Q, A322D, P327Y, R330K
light: not shown
notes: copies: 2 + 2
B23: H237-MB814/MRAL-k0 (antibody, mouse IgG1, kappa)
heavy: B1 heavy with L291Q, N320D, P327Y, R330K
light: not shown
notes: copies: 2 + 2
B24: H237-MB790/MRAL-k0 (antibody, mouse IgG1, kappa)
heavy: B1 heavy with L291Q, N320D, A322D
light: not shown
notes: copies: 2 + 2
B25: H237-MB821/MRAL-k0 (antibody, mouse IgG1, kappa)
heavy: B1 heavy with L291Q, N320M
light: not shown
notes: copies: 2 + 2
B26: H237-MB825/MRAL-k0 (antibody, mouse IgG1, kappa)
heavy: B1 heavy with L291Q, A322D, E329Y, R330K
light: not shown
notes: copies: 2 + 2
B27: H237-MB817/MRAL-k0 (antibody, mouse IgG1, kappa)
heavy: B1 heavy with L291Q, N320M, A323G, R330K
light: not shown
notes: copies: 2 + 2

Experiments:
[1] = molecular target: T1, mouse FcγRII extracellular domain, C-terminal His tag (mouse, UniProt P08101 30-210); assay: SPR (Biacore T200), antibody captured on Protein L, mFcγR analyte
T1 construct: also called mFcγRII; mFcgRII
T1 sequence: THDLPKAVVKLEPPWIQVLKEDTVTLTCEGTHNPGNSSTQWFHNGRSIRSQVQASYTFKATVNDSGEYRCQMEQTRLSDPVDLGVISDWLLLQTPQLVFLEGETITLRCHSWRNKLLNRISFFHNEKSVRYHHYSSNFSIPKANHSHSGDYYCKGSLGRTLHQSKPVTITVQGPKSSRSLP

[2] = molecular target: T2, mouse FcγRIII extracellular domain, C-terminal His tag (mouse, UniProt P08508 31-215); assay: as above
T2 construct: also called mFcγRIII; mFcgRIII
T2 chain: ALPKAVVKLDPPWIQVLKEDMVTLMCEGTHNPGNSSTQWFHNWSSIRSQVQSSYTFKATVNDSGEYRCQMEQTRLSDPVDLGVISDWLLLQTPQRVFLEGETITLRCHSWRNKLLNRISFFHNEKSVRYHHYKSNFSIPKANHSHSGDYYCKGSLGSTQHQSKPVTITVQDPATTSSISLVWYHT

| Binder | Kd [1] [nM] | relative mFcγRII-binding activity (mIgG1 = 1) [1] | Kd [2] [nM] | relative mFcγRIII-binding activity (mIgG1 = 1) [2] |
| --- | --- | --- | --- | --- |
| B1 | 14.3 | 14.7 fold vs H237-mIgG1/MRAL-k0 | 734 | 0.4 fold vs H237-mIgG1/MRAL-k0 |
| B2 | 10.8 | 19.5 fold vs H237-mIgG1/MRAL-k0 | 854 | 0.3 fold vs H237-mIgG1/MRAL-k0 |
| B3 | 9.38 | 22.4 fold vs H237-mIgG1/MRAL-k0 | 475 | 0.6 fold vs H237-mIgG1/MRAL-k0 |
| B4 | 13.5 | 15.6 fold vs H237-mIgG1/MRAL-k0 | 979 | 0.3 fold vs H237-mIgG1/MRAL-k0 |
| B5 | 11.1 | 19 fold vs H237-mIgG1/MRAL-k0 | 638 | 0.4 fold vs H237-mIgG1/MRAL-k0 |
| B6 | 5.45 | 38.5 fold vs H237-mIgG1/MRAL-k0 | 295 | 1 fold vs H237-mIgG1/MRAL-k0 |
| B7 | 6.9 | 30.4 fold vs H237-mIgG1/MRAL-k0 | 431 | 0.7 fold vs H237-mIgG1/MRAL-k0 |
| B8 | 6.28 | 33.4 fold vs H237-mIgG1/MRAL-k0 | 418 | 0.7 fold vs H237-mIgG1/MRAL-k0 |
| B9 | 4.8 | 43.8 fold vs H237-mIgG1/MRAL-k0 | 304 | 0.9 fold vs H237-mIgG1/MRAL-k0 |
| B10 | 6.8 | 30.9 fold vs H237-mIgG1/MRAL-k0 | 343 | 0.8 fold vs H237-mIgG1/MRAL-k0 |
| B11 | 7.19 | 29.2 fold vs H237-mIgG1/MRAL-k0 | 359 | 0.8 fold vs H237-mIgG1/MRAL-k0 |
| B12 | 7.73 | 27.2 fold vs H237-mIgG1/MRAL-k0 | 493 | 0.6 fold vs H237-mIgG1/MRAL-k0 |
| B13 | 5.23 | 40.1 fold vs H237-mIgG1/MRAL-k0 | 256 | 1.1 fold vs H237-mIgG1/MRAL-k0 |
| B14 | 8.43 | 24.9 fold vs H237-mIgG1/MRAL-k0 | 577 | 0.5 fold vs H237-mIgG1/MRAL-k0 |
| B15 | 10.1 | 20.8 fold vs H237-mIgG1/MRAL-k0 | 546 | 0.5 fold vs H237-mIgG1/MRAL-k0 |
| B16 | 11.6 | 18.1 fold vs H237-mIgG1/MRAL-k0 | 872 | 0.3 fold vs H237-mIgG1/MRAL-k0 |
| B17 | 8.39 | 25 fold vs H237-mIgG1/MRAL-k0 | 575 | 0.5 fold vs H237-mIgG1/MRAL-k0 |
| B18 | 12 | 17.6 fold vs H237-mIgG1/MRAL-k0 | 938 | 0.3 fold vs H237-mIgG1/MRAL-k0 |
| B19 | 9.45 | 22.2 fold vs H237-mIgG1/MRAL-k0 | 654 | 0.4 fold vs H237-mIgG1/MRAL-k0 |
| B20 | 9.58 | 21.9 fold vs H237-mIgG1/MRAL-k0 | 579 | 0.5 fold vs H237-mIgG1/MRAL-k0 |
| B21 | 12.9 | 16.3 fold vs H237-mIgG1/MRAL-k0 | 951 | 0.3 fold vs H237-mIgG1/MRAL-k0 |
| B22 | 7.51 | 28 fold vs H237-mIgG1/MRAL-k0 | 500 | 0.6 fold vs H237-mIgG1/MRAL-k0 |
| B23 | 11.7 | 18 fold vs H237-mIgG1/MRAL-k0 | 826 | 0.3 fold vs H237-mIgG1/MRAL-k0 |
| B24 | 6.28 | 33.5 fold vs H237-mIgG1/MRAL-k0 | 402 | 0.7 fold vs H237-mIgG1/MRAL-k0 |
| B25 | 8.6 | 24.4 fold vs H237-mIgG1/MRAL-k0 | 625 | 0.5 fold vs H237-mIgG1/MRAL-k0 |
| B26 | 7.38 | 28.4 fold vs H237-mIgG1/MRAL-k0 | 564 | 0.5 fold vs H237-mIgG1/MRAL-k0 |
| B27 | 7.38 | 28.5 fold vs H237-mIgG1/MRAL-k0 | 539 | 0.5 fold vs H237-mIgG1/MRAL-k0 |
